T1: Complement C4 (human)
T1 chain 1: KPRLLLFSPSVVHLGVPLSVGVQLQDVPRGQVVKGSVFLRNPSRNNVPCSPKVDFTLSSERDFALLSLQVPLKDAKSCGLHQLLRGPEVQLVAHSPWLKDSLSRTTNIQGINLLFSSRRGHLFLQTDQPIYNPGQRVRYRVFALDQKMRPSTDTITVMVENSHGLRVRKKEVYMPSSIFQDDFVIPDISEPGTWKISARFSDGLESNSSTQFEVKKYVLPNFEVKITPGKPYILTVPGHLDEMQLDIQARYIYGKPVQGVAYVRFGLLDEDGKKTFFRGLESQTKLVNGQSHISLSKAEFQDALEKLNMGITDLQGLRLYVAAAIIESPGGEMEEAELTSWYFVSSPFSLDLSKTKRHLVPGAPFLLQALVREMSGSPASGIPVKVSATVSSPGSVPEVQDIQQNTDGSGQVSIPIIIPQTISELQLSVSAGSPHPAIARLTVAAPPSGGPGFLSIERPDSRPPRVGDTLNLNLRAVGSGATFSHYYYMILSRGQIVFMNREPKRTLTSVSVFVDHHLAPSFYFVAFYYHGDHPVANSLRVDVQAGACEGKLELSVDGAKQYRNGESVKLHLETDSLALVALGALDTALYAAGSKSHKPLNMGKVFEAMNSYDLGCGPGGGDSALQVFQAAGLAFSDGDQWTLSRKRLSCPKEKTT
T1 chain 2: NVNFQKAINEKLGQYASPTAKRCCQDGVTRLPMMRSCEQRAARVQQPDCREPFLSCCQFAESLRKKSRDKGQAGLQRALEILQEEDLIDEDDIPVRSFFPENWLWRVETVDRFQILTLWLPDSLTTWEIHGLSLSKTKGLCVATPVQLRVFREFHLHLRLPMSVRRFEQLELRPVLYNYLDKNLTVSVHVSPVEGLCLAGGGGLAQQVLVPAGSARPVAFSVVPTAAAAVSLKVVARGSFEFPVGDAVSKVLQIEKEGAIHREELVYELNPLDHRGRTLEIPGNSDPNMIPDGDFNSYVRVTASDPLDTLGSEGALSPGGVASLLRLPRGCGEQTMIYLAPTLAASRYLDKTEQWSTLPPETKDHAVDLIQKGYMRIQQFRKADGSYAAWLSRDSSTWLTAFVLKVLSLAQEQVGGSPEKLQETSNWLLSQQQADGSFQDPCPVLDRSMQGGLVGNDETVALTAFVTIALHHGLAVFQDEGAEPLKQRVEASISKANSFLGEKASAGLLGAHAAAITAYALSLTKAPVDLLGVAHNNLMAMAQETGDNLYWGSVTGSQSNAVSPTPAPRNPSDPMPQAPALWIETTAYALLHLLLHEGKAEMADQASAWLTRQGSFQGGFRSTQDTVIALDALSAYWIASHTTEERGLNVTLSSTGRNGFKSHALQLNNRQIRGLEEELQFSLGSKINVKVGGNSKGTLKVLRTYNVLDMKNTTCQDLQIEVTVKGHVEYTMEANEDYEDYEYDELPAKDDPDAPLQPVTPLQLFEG
T1 chain 3: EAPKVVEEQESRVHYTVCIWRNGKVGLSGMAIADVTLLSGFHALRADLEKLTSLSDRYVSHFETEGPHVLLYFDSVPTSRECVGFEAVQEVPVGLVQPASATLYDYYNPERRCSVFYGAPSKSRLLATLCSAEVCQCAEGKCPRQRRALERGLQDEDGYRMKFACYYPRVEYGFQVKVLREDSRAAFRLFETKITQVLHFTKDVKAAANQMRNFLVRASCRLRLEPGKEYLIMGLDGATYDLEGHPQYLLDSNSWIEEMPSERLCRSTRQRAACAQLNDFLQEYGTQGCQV

T2: cynomolgus monkey complement C2 (in plasma of treated monkeys), G8F3W0
T2 chain: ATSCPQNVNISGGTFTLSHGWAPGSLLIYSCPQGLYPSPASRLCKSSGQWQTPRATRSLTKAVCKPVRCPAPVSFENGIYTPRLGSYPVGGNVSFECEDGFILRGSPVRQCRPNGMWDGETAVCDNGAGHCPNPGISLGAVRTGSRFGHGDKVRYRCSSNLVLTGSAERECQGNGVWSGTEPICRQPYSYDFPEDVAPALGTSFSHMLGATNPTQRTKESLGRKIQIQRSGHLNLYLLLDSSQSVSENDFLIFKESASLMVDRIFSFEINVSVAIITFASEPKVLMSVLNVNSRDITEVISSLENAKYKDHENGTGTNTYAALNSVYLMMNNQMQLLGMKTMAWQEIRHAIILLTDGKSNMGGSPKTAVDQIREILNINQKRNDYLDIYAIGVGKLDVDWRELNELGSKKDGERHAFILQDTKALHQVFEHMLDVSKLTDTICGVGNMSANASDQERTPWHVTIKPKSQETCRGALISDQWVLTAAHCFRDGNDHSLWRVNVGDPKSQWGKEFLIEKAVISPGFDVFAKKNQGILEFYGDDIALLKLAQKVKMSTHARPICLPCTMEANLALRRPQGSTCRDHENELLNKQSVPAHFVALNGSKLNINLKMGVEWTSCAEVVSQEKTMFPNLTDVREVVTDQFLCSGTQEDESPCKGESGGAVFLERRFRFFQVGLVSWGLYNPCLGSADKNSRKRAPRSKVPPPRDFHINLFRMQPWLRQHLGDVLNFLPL

B1: modified MT-SP1 CB252 (Y146E/K224N) protease domain (protein)
chain: VVGGTDADEGEWPWQVSLHALGQGHICGASLISPNWLVSAAHCYIDDRGFRYSDPTQWTAFLGLHDQSQRSAPGVQERRLKRIISHPFFNDFTFDYDIALLELEKPAEYSSMVRPICLPDASHVFPAGKAIWVTGWGHTQEGGTGALILQKGEIRVINQTTCENLLPQQITPRMMCVGFLSGGVDSCQGDSGGPLSSVEADGRIFQAGVVSWGDGCAQRNNPGVYTRLPLFRDWIKENTGV
B2: modified MT-SP1 CB377 (Y146E/Q175D/K224N) protease domain (protein)
chain: VVGGTDADEGEWPWQVSLHALGQGHICGASLISPNWLVSAAHCYIDDRGFRYSDPTQWTAFLGLHDQSQRSAPGVQERRLKRIISHPFFNDFTFDYDIALLELEKPAEYSSMVRPICLPDASHVFPAGKAIWVTGWGHTQEGGTGALILQKGEIRVINQTTCENLLPQDITPRMMCVGFLSGGVDSCQGDSGGPLSSVEADGRIFQAGVVSWGDGCAQRNNPGVYTRLPLFRDWIKENTGV

Tests used:
[1] = target: Complement component C9 (human)
Complement component C9 (human), sequence (chain, as listed by the source): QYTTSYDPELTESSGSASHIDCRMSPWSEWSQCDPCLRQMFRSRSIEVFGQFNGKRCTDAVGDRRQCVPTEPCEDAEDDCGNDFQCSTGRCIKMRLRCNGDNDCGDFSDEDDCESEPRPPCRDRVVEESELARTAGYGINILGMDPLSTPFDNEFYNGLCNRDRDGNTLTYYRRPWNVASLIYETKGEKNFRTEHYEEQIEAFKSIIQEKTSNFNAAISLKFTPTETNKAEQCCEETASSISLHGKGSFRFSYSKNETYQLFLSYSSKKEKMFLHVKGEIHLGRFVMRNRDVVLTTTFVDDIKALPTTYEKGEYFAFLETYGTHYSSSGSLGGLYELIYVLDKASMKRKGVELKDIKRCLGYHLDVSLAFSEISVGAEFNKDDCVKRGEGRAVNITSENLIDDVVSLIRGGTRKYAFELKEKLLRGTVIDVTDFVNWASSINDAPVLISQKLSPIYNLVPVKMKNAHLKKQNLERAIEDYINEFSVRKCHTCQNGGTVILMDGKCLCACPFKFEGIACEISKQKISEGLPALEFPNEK

[2] = target: Complement component C8 (human)
Complement component C8 (human), sequence (chain, as listed by the source, chain 1 of 3): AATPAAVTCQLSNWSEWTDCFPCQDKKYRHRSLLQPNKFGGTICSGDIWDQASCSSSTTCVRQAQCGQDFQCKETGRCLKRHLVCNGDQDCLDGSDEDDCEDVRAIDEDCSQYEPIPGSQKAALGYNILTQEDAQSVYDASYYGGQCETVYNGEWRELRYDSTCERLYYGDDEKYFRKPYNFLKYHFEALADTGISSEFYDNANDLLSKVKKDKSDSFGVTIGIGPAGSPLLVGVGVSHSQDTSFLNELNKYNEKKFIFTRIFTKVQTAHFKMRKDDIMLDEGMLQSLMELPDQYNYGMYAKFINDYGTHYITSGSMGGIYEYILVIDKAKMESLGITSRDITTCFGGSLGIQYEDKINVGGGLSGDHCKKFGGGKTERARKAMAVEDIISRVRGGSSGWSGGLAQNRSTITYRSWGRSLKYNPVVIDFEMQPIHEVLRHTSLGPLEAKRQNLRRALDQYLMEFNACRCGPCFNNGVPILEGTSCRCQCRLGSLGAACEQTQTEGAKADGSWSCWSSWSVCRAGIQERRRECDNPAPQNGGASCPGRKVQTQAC
Complement component C8 (human), sequence (chain, as listed by the source, chain 2 of 3): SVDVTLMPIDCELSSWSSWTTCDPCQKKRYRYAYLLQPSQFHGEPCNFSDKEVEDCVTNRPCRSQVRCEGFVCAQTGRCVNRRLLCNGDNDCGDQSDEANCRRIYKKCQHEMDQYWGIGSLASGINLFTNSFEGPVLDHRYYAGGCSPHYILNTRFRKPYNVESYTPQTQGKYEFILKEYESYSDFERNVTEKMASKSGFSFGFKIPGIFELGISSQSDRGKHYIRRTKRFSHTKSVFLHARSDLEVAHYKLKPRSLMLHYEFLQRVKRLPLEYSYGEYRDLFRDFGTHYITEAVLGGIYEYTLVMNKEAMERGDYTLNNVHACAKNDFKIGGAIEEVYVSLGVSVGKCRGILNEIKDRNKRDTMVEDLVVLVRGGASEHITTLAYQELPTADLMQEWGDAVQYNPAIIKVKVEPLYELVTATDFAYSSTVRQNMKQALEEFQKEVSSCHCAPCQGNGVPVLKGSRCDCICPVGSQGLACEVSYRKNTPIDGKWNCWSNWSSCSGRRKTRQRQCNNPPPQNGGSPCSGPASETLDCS
Complement component C8 (human), sequence (chain, as listed by the source, chain 3 of 3): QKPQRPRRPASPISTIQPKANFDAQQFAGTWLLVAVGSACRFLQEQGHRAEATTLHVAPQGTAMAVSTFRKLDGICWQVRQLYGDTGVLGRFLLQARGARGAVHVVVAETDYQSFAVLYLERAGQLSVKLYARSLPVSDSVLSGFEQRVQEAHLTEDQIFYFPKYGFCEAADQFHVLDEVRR

[3] = target: T1, Complement C4 (human)
[4] = target: Complement C3 (human)
[5] = target: T2, cynomolgus monkey complement C2 (in …)
[6] = target: Complement C5 (human)
Complement C5 (human), sequence (chain, as listed by the source, chain 1 of 2): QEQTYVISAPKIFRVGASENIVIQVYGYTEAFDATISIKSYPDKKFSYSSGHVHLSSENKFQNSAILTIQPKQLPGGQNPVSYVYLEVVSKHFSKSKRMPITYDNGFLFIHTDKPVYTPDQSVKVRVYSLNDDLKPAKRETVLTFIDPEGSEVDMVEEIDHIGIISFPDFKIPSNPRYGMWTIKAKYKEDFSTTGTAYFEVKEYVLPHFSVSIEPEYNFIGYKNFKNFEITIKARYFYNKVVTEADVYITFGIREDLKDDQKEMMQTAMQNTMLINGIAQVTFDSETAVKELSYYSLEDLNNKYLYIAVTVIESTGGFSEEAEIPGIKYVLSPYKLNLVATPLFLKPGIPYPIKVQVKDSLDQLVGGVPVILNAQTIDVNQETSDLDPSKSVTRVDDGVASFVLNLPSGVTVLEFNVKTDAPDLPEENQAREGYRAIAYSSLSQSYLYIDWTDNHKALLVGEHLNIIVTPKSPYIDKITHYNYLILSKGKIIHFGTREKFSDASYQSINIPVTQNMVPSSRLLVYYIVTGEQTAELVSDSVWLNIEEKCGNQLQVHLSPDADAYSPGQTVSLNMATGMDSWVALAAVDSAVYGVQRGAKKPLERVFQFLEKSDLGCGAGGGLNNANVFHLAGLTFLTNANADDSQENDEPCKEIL
Complement C5 (human), sequence (chain, as listed by the source, chain 2 of 2): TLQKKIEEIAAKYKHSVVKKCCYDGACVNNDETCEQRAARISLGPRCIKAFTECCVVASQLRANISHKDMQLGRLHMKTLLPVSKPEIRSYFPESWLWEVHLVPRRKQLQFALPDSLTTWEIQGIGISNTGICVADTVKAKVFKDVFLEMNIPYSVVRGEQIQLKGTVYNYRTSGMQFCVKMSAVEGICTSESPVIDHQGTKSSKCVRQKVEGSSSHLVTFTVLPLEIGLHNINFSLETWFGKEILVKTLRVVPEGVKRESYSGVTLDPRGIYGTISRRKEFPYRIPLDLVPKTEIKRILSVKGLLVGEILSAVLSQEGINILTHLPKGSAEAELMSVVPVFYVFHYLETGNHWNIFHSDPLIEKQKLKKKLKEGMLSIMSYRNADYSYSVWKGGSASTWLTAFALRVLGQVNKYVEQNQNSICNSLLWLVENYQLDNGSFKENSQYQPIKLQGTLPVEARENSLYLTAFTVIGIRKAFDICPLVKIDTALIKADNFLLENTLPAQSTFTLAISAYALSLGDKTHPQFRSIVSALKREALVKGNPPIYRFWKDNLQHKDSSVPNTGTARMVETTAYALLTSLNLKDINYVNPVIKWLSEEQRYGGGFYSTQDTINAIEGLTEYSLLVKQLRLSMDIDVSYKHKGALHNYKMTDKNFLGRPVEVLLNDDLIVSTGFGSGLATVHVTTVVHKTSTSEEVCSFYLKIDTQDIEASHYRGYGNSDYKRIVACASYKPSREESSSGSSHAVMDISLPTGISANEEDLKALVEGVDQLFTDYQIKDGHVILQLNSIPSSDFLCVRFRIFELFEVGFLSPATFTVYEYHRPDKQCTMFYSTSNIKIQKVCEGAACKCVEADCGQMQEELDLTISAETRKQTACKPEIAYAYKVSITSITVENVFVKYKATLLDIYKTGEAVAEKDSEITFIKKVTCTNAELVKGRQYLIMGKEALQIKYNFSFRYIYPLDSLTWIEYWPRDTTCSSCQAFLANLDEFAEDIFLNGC

[7] = target: Complement component C7 (human)
Complement component C7 (human), sequence (chain, as listed by the source): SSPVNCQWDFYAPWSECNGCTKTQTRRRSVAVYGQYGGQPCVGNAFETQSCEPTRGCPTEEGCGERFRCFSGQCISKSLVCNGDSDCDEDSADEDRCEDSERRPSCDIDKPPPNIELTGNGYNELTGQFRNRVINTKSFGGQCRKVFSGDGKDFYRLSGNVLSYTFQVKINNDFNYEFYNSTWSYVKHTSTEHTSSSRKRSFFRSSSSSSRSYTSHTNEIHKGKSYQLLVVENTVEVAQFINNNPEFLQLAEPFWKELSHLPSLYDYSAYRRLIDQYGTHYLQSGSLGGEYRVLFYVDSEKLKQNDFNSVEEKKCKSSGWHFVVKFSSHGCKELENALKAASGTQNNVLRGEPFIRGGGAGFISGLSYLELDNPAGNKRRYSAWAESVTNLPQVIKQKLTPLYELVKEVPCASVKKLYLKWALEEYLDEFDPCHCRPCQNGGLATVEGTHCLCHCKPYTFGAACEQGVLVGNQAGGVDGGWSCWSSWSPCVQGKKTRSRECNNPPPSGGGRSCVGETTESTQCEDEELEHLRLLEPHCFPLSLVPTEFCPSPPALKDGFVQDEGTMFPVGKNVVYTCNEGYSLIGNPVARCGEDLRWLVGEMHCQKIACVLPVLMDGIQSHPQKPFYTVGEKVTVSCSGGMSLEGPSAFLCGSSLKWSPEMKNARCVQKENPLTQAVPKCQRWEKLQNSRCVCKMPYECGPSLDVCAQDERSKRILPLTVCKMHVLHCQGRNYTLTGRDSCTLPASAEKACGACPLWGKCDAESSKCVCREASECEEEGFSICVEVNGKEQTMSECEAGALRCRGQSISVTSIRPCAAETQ

| Protein | hemolysis (OD415) by protease-preincubated purified complement protein added back to the corresponding depleted sera [1] | hemolysis (OD415) by protease-preincubated purified complement protein added back to the corresponding depleted sera [2] | hemolysis (OD415) by protease-preincubated purified complement protein added back to the corresponding depleted sera [3] | cleavage in 90% human plasma by Western blot [4] | hemolysis (OD415) by protease-preincubated purified complement protein added back to the corresponding depleted sera [4] | C2 Western blot of plasma from monkeys dosed IV with 1 or 3 mg/kg protease [5] | hemolysis (OD415) by protease-preincubated purified complement protein added back to the corresponding depleted sera [6] | hemolysis (OD415) by protease-preincubated purified complement protein added back to the corresponding depleted sera [7] | also measured |
| --- | --- | --- | --- | --- | --- | --- | --- | --- | --- |
| B1 | showed no decreased hemolysis as compared to normal sera or the no protease control | showed no decreased hemolysis as compared to normal sera or the no protease control | showed no decreased hemolysis as compared to normal sera or the no protease control | none of the tested proteases cleaved C3 in human plasma as compared to the no protease control even at the highest concentration of protease (2000 nM) | showed no decreased hemolysis as compared to normal sera or the no protease control | increased cleavage of C2 in plasma from CB252 and CB377 treated monkeys after treatment with 3 mg/kg protease but not after treatment with 1 mg/kg protease ... a greater cleavage of C2 occurred in plasma collected form CB252 treated monkeys as compared to CB377 treated monkeys at all time points tes | showed no decreased hemolysis as compared to normal sera or the no protease control | showed no decreased hemolysis as compared to normal sera or the no protease control | C2 Western blot of plasma from monkeys dosed with 1 mg/kg CB252 IV [5]: Plasma from monkeys treated with 1 mg/kg CB252 had no discernable C2 cleavage; average extent of degradation of C2 (densitometry of C2 Western blots), 5 minutes after 3 mg/kg CB252 IV [5]: 60% degraded at 5 minutes; average extent of degradation of C2 (densitometry of C2 Western blots), 30 minutes after 3 mg/kg CB252 IV [5]: 50% degraded at 30 minutes; average extent of degradation of C2 (densitometry of C2 Western blots), 60 minutes after 3 mg/kg CB252 IV [5]: 40% degraded at 60 minutes; percent C2 cleavage (Western blot densitometry), plasma of animal 2, 5 minutes after 3 mg/kg CB252 IV [5]: 62%; percent C2 cleavage (Western blot densitometry), plasma of animal 2, 30 minutes after 3 mg/kg CB252 IV [5]: 55%; percent C2 cleavage (Western blot densitometry), plasma of animal 2, 60 minutes after 3 mg/kg CB252 IV [5]: 50%; percent C2 cleavage (Western blot densitometry), plasma of animal 4, 5 minutes after 3 mg/kg CB252 IV [5]: 55%; percent C2 cleavage (Western blot densitometry), plasma of animal 4, 30 minutes after 3 mg/kg CB252 IV [5]: 45%; percent C2 cleavage (Western blot densitometry), plasma of animal 4, 60 minutes after 3 mg/kg CB252 IV [5]: 37%; percent C2 cleavage (Western blot densitometry), plasma of animal 5, 5 minutes after 3 mg/kg CB252 IV [5]: 65%; percent C2 cleavage (Western blot densitometry), plasma of animal 5, 30 minutes after 3 mg/kg CB252 IV [5]: 50%; percent C2 cleavage (Western blot densitometry), plasma of animal 5, 60 minutes after 3 mg/kg CB252 IV [5]: 38% |
| B2 | showed no decreased hemolysis as compared to normal sera or the no protease control | showed no decreased hemolysis as compared to normal sera or the no protease control | showed no decreased hemolysis as compared to normal sera or the no protease control | none of the tested proteases cleaved C3 in human plasma as compared to the no protease control even at the highest concentration of protease (2000 nM) | showed no decreased hemolysis as compared to normal sera or the no protease control | increased cleavage of C2 in plasma from CB252 and CB377 treated monkeys after treatment with 3 mg/kg protease but not after treatment with 1 mg/kg protease | showed no decreased hemolysis as compared to normal sera or the no protease control | showed no decreased hemolysis as compared to normal sera or the no protease control | – |

Reference: patent US20070093443
